# Results reported in the nanobody polyreactivity screen of Harvey et al. (2022).
# Experiment: yeast display, Sf9 membrane polyspecificity reagent, FACS + sequencing; frameworks hold sequencing errors
# Method in brief: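 Sorting gates, low and high (top ~1%), were placed on anti-HA fluorescence to track expression and on streptavidin fluorescence to track reagent binding. A clone's polyreactivity label is taken from the gate it came out of. The reagent was 10% biotinylated, detergent-solubilized Sf9 membrane, applied for 1 hour at 4 °C to galactose-induced yeast display cells.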
row,Sequence,polyreactivity (PSR sort gate)
1,QDQLVESGGGLVQAGGSLRLSCAASVITFDLYAMGWYRQAPGKERELVAAISISSTSTYYADSVKGLFTISRDNAKNTVYLQMISLKPEDTAGYYCNAVPSSKTFWFDYWGLGTQVTVSS,low polyreactivity
2,QVQLVESGGGLVQAGGSLRLSCAASGFIFKSYAMGWYRQAPGKERELVAAITRGDNTNYADSVKGRFTISRDNAKNTFYLQMNSLKPEDTAVYYCAADRYTVRMDYWGQGTQVTVSS,high polyreactivity
3,QVQLVESGGGLVQAGGSLRLSCAASGSIFWVYAMGWSRQAPGKERELVAAISNSGSTNYADSVKGRFTISRDNAKNTVYLQMNSLKPEDTAVYYCAKDSLVDHVGGYDYWGQGTQVTVSS,low polyreactivity
4,QVQLVESGGGLVQAGGSLRLSCAASGRNFPYYAMGWYRQAPGKERELVATISSSGGSTYYADSVKGRFTISRDNAKNTVYLQMNSLKPEDTAVYYCAADWYGYRQFHGYYWGQGTQVTVSS,high polyreactivity
5,QVQLVESGGGLVQAGGSLRLSCAASGLTFVFYAMGWYRQSPGNERELVAAISWSTGRTYYADSVKGRFTISRDNAKNTVYLQMNSLKPEDTAVFYCGASFLGRKYDYWGHGTQVTVSS,high polyreactivity
6,QVQLVESGGGLVQAGGSLRLSCAASGSTFRPYAMGWDRQAPGKERELVAAITSTGGSTYYADSVKGRFTISRDNAKNTVYLQMNSLKPEDTAVYYCAAPLVRYAGPYDYWGQGTQVTVSS,low polyreactivity
7,QVQRVESGGGLVQAGGSLRLSCAASGRNSQFYDMGWYRQAPGKERELVATISGGASTNYADSVKGRFTISRDNAKNTVYLQMNSLKPEDTAVYYCARAGRSWDTLYKYYLEHDYWGQGTQVTVSS,low polyreactivity
8,QVQLVDSGGGLVQAGGSLRLSCAASGSIFVKYAMGCYRQAPGKERELVAAISGSGGSTYYADSVKGRFTISRDNAKNTVSLQMNSLKPEDTAVYYCAADDYFYSGRYGFEFWGQGTQVTVSS,low polyreactivity
9,QVQLVESGGGLVQAGGSLRLSCADSGSIFVWNDMGWYRQAPGKEREFVAAITSRDGSTYYADSVKGRFTISRDTAKNTVYLQMTSLKPEDTAVYYCAARLRVTGFYSRTRYYWGQGTQVTVAS,low polyreactivity
10,QDQLVESGGGLVQAGGSLRLSCAASGITFAGNAMGWYRQAPGKERELVAAISGSGGSTSYADSVKGRFTISRDNAKNTVYLQMNSLKPEDTAVYYCAAASRLYNWHALFGSWGQGTQVTVSS,low polyreactivity
11,QVQLVESGGGLVQAGGSLRLSCAASGSIFVPYDMGWYRQAPGKERELVAVISTDDGTYYADSVKGRFTISRDNAKNTVYLQMNSLKPEDTAVYYCAADRWYREYDYWGQGTQVTVSS,low polyreactivity
12,QVQLVESGGGLVQAGGSLRLSCAASGIIFQRNDMGWYRQAPGKERELDANIRDGGITYADSVKGRFTISRDNAKNTVYLQMNSLKPEDTAVYYCARYDTSPGYGDQSSNAAYYYWGQVTQVTVSS,low polyreactivity
13,QVQLVESGGGLVQAGGSLRLSCAASGNTFTRNTMGWYRPAPGKERELVASISLSGASTYYADSVKGRFTISRDNAKNTVYLQMNSLKPEDTAVYYCAAEYFNYKTDVDYWGQGTQVTVSS,high polyreactivity
14,QVQLVESGGGLVQAGGSLRLSCAASGSTLYKYAMGWYRQSPGKERELVAAISWSGSSTYYADSVKGRFTISRDNAKNTVYLQMNSLKPVDTAVYYCAAYPRPYIGYTDVYVWYEFDYWGQGTQVTVSS,low polyreactivity
15,QVQLVESGGGLVQAGGSLRLSCAASGRTFTEYAMGWYRQAPGKERELVAGIDSGSGSTYYADSVKGRFTISRDNAKNTVYLQMNSLKPEDTAVYYCAADHAYYRYDYWGQGTQVTVSS,low polyreactivity
16,QVQLVESAGGLVLAGGSLRLSCAASGYTVVRYAMGWYRQEPGKERELVAAISRSGGSTYYADSVKGRFTISRDNANNTVYLQMNSLNPEDTAVYYCNAYPYSYYDYDYWGQGTQVTVSS,high polyreactivity
17,QVQLVESGGGLVQAGGSLRLSCAASGSTLPGNTMGWYRQAPGKERELVAAISKSGGTTYYADSVKGRFTISRDYAKNTVYLQMNSLKPEDTAVYYCAAKPWVWVYARYGKHPSYDYWGQGTQVTVSS,high polyreactivity
18,QVQLVESGGGLVQAGGSLRLSCAASGITFVRNAMGWYRQAPGKERELVAAISSGGSTYYADSVKGRFTISRDNAKNTVYLQINSLKPEDTAVYYCNAQIYGRQYRYRWHYYWGQGTQVTVSS,high polyreactivity
19,QVQLVESGGGLVQAGGSLRLSCAASGSTFNRYAMGWYRQAPGKERELVAAISWSGTRTYYADSVKGRFTISRDNAKNTVYLQMNSLKPEDTAVYYCAARRLYAGHQYDYWGQGTQVTVSS,high polyreactivity
20,QVQLVESGGGLVQAGGRLRLSCAASGLTFKRYAMGWYRQAPGKERELVASITGNGGSTYYADSVKGRFTISRDNAKNTVYLQINSLKPEDTAVYYCNARRYVRTSQQPLYFYWGQGTQVTVSS,high polyreactivity
21,QVQLVESGGGLVQAGGSLLLSCAASGSTFIPYAMGWYRQAPWKERELVAAITWSSGSTYYADSVKVRFTISRDNAKNTVFLQMNSLKTEDTAVYYCARDRYSVFDYDYWGQGTQVTVSS,low polyreactivity
22,QVQLVESGGGLVQAGGSLRLSCAASGSTFYFYAMGWYRQAPGKERELVATITTRGGSTYYADSVKGRFTISRDHAKNTLDLQMNILKPEDTAVYYCAREAWYKSYSRIKFGYWGQGTQVTVSS,high polyreactivity

row,Sequence,polyreactivity (PSR sort gate)
1,QVQLVESGGGLVQAGGSLRLSCAASGRIFYPYAMGWYIQAPGKERELVADISIGGSTNYADSVKGRFTISRDNAKNTVYLQMNSLKPEDTAVYYCNAGGGFYGSTVEHDYWGQGTQVTVSS,low polyreactivity
2,QVQLVESGGGLVQAGGSLRLSCAASGRTFVTYGMGWYRQAPGKERQLVAAISKRGSRTYYADSVKGRFTISRDNAKNTVYLQMNSLKPEDTAVYYCNAETYRTTYDYWGQGTQVTVSS,high polyreactivity
3,QVQLVESGGGIVQAGGTLRLSCAASGSTFKNKAMGCNRHAPGKETEFVAGITRRGTSTYYADSVKGRFTISLDNAKNSVYLQMNSLKPEDTSVYYCAARAWYPSRYDYWGQGTLVTVSS,high polyreactivity
4,QVQLVESGGGLVQAGGSLRLSCAASGITLGYYAMGWYRQAPGKERELVAAITWSGTSTYYADSVKGRFTISRDNAKNTVYLQMNSLKPEDTAVYYCAAGFISQYQERGYWGQGTQVTVSS,low polyreactivity
5,QVQLVESGGGLVQAGGSLRLSCAASGSIFAGYAMGWYRQAPGKERELVATITSSSRTNYADSVKGRFTISRDNAKNTVYLQMNSLKPEDTAVYYCAARGRYVIDGYRMYYWGQGTQVTVSS,high polyreactivity
6,QVQLVESGGGLVQAGGSLRLSCAASGRTFRQYAMGWYRQAPGKERELVAAISSSGGRTYYADSVKGRFTISRDNAKNTVYLQMNSLKPEDTAVYYCNAARYSYCFDSWGQGTQVTVSS,high polyreactivity
7,QVQLVESGGGLVQAGGSLRLSCAASGRTFYKNTMGWYRQAPGKERELVATITRRGGTTYYADSVKGRFTISRDKAKNTVYLQMNSLKPEDTAVYYCAKDASTEKYDYWGQGTQVTVSS,low polyreactivity
8,QVQLVESGGGLVQAGGSLRLSCAASGFTFYRNAMGWYRQAPGKERELVAAISRGGRTYYADSVKGRFTISRDNAKNTVYLQMNSLKQEDTAVYYCAADFYIKYSEFDYWGQGTQVTVSS,high polyreactivity
9,QDQLVESGGGLVQAGGSLRLSFAASGFTFDHYAMGWSRQAPGKEREYVARITGTGDSTYYADSVKGRFTISRDNAKNTVYLQMNSLKPEDTAVYYCAKDFTGHYPNGFDYWGQGTQVTVSS,low polyreactivity
10,QVQLVESGGGLVQAGGSLRLSCAASGSTFAGYAMGWYIQAPGKERELVASIRSGGSTNYADSVKGRFSISRDNAKNTVYLQMNSLKPEDTAVYYCAARPDQKRYDYWGQGTQVTVSS,low polyreactivity
11,QVQIVESGGGLVQAGGSLRLRCAASGRIIYKNAMGWYRQAPGKERELVAAITTSGGSTYYADSVKGRFTISRDNSKNTVYLEMNSLKPEDTAVYYCATRGHYRQTINYWGQGTQVTVSS,high polyreactivity
12,QVQLVESGGGLVQAGGSLRLSCAASVFTFVRYSMGWYRQAPGKERELVAAISSGGRTYYADSVKGRFTISRDNAKYTVYLQMNSLKPEDTAVYYCAADTKFGYGYWGQGTQVNVSS,high polyreactivity
13,QVQLVESGGGLVQAGGSLRLSCAASGYIFYSNDMGWSRQAPGKVRELVAAIDNGGSTTYADSVKGRFTISRDNAKNTVYLQMNSLKPEDTAVYYCATDNPFTSTTYDYWGQGTQVTVSS,low polyreactivity
14,QVQLVESGGGLVQAGGSLRLSCAASGTIFFGNTMGWYRQAPGKERELVAVITSSGGRTFYADSVKGRFTISRDNAKNTVYLHMNSLKPEDTAVYYCAAGHGFYYFTPTHDSWGQGTQVTVSS,high polyreactivity
15,QVKRVESGGGLVQAGGSLRLSCAASGSTFYDYAMGWYRPAHGKQRELVAAINGNGDSTYYADSVKGRFTISRDNAKNTVYLQMNSLKPEDTAVYYCAAYLGWGYDYWGQGTQVTVSS,low polyreactivity
16,QVQLVESGGGLVQAGGILRLSCAASGSIFRQNPMGWYRKAPGKERELVAAISSGGSTYYADSVKGRFTISRDNAKNNVYLQRNSLKPEDTAVYYCAAYHSFVWGDDYWGQGTQVTVSS,low polyreactivity
17,QVQLVESGGGLVQAGGSLRLSCAASGITFGKNAMGWYRQAPGKERELVATIRRSGGSTYADSVKGRFTISRDNAKNTVYLQMNSLKPEDTAVYYCNARSWNTYNYWGQGTQVTVSS,high polyreactivity
18,QVHLVESGGGLVQAGGSLRLSCAASGFNFLIYAMGWYRQAPGKERELVAAITLRGSGTYYADSVKGRFTISRDNAKNTVYLQMNSLKPEDTAVYDCAAGTARRTYDYWGQGTQVTVSS,low polyreactivity
19,QVQLVESGGGLVQAGGSLRLSCAASGFIFFFYAMGWYSQAPGKERELVASISWNGGSTYYADSVKGRFTISRDNAKNTVYLQMNSLKPEDTAVYYCNKDPVSLWYYSKDYTYDYWGQGTQVTVSS,low polyreactivity
20,QVQLVESGGGLVQAGGSLRLSCAASGSTFSLYAMGWYRQAPGKERELVAAISQSGSRTYYADSVKGRFTISRDNAKNTVYLQMNSLKPEDTAVYYCAAYSPQTYLRWTYGYWGQGTQVTVSS,high polyreactivity
21,QVQLVESGGGLVQAGGSLRLSCAASGRTFYRNARGWYRQAPGKERELVAVISSSGVRTYYADSVKGRFTISRDNAKNTVYLQRNSQKPEDTAVYYCAADSNSYYRGFDYWGQGTQVTVSS,high polyreactivity
